Test results as given in patent publication US20140322759.
Changes are numbered by the printed parent chain.

Assays:
Assay in all cases: EMSA
[1] = target: T1, phi29 DNA polymerase Mut_5 M8R,V51A,M97T,G197D,E221K,Q497P,K512E,F526L (Bacillus phage phi29) (UniProt P03680); details: SD 7.4; unit not given (μM in assay); pH 7.9, 66 mM K-acetate, 30 C
T1 sequence: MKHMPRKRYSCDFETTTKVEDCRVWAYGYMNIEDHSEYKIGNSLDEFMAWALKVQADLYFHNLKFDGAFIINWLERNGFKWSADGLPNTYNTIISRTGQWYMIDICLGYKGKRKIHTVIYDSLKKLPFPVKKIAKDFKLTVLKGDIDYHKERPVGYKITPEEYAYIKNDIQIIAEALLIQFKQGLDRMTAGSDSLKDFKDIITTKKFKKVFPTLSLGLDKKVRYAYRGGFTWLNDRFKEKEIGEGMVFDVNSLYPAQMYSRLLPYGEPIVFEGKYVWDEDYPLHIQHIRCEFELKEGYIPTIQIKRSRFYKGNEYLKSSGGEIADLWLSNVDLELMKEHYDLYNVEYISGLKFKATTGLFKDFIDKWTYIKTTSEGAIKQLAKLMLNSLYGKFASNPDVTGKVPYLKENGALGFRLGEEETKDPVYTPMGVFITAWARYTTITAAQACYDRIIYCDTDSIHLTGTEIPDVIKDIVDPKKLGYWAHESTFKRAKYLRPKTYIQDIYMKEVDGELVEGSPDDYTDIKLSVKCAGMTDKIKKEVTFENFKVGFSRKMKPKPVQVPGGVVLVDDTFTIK

[2] = target: T2, phi29 DNA polymerase M8R M8R (Bacillus phage phi29) (UniProt P03680); details: SD 2.1; unit not given (μM in assay); pH 7.9, 66 mM K-acetate, 30 C
T2 sequence: T1 sequence with A51V, T97M, D197G, K221E, P497Q, E512K, L526F

[3] = target: T3, phi29 DNA polymerase G197D G197D (Bacillus phage phi29) (UniProt P03680); details: SD 25.7; unit not given (μM in assay); pH 7.9, 66 mM K-acetate, 30 C
T3 sequence: T1 sequence with R8M, A51V, T97M, K221E, P497Q, E512K, L526F

[4] = target: T4, phi29 DNA polymerase M97T M97T (Bacillus phage phi29) (UniProt P03680); details: SD 2.5; unit not given (μM in assay); pH 7.9, 66 mM K-acetate, 30 C
T4 sequence: T1 sequence with R8M, A51V, D197G, K221E, P497Q, E512K, L526F

GATCACAGTGAGTAC / TCTATTGTACTCACTGTGATC [15-mer/21-mer primer/template]
Kd [1]: 23 µM
Kd [2]: 43 µM
Kd [3]: 51 µM
Kd [4]: 37 µM
